These results are taken from article PMC12216052 (Nature Communications, 2025).

The test has as its target T1, Notch1(EGF1-36) (amino acids 20-1426) (human, UniProt P46531 20-1426, biotin, chemically at the N-terminus (EZ-Link Sulfo-NHS-Biotin)).
T1 construct: NOTCH1, human, EGF1-36, amino acids 20-1426; also called NOTCH1 ECD; source: Tni insect cells (baculovirus), purified (nickel chromatography with 1 mM calcium, SEC), chemically biotinylated
The test is described as follows: SPR; ~300 RU biotinylated NOTCH1(EGF1-36) on a streptavidin chip; DLL4(N-5) or DLK1 ECD as analyte; HBS-P20-BSA with 1 mM CaCl2; reference: ZNRF3 ECD. As to conditions: both partners purified. Background: Surface plasmon resonance follows binding to a sensor surface in real time, without labels.

B1: Human DLL4 (N-EGF5, amino acids 27-400) (domain or fragment, UniProt Q9NR61 27-400, looked up)
chain: SGVFQLQLQEFINERGVLASGRPCEPGCRTFFRVCLKHFQAVVSPGPCTFGTVSTPVLGTNSFAVRDDSSGGGRNPLQLPFNFTWPGTFSLIIEAWHAPGDDLRPEALPPDALISKIAIQGSLAVGQNWLLDEQTSTLTRLRYSYRVICSDNYYGDNCSRLCKKRNDHFGHYVCQPDGNLSCLPGWTGEYCQQPICLSGCHEQNGYCSKPAECLCRPGWQGRLCNECIPHNGCRHGTCSTPWQCTCDEGWGGLFCDQDLNYCTHHSPCKNGATCSNSGQRSYTCTCRPGYTGVDCELELSECDSNPCRNGGSCKDQEDGYHCLCPPGYYGLHCEHSTLSCADSPCFNGGSCRERNQGANYACECPPNFTGSNCE
notes: Delta-like 4 (DLL4), human, N-EGF5, amino acids 27-400; also called DLL4(N-5); source: Tni insect cells (baculovirus), purified (nickel chromatography, SEC)
Turning to B1, the binding result was “binds”.
